Reference: patent US20090305419

How the values were obtained:
Assay in all cases: cell_activity
[1] = test system: CCR5 ZFN SBS#8266, L6a linker (artificial (zinc finger-FokI)); details: average of 2; ZFN pair
[2] = test system: CCR5 ZFN SBS#8266, L7a linker (artificial (zinc finger-FokI)); details: ZFN pair
[3] = test system: mROSA-targeted ZFN pair, Wt/L7a linkers (artificial (zinc finger-FokI)); details: Neuro2A; mock 0.4
[4] = test system: mROSA-targeted ZFN pair, Wt/Wt linkers (artificial (zinc finger-FokI)); details: Neuro2A; mock 0.4; repeats 23.2 and 18.7
[5] = test system: CCR5 ZFN SBS#8266, wild-type ZC linker (artificial (zinc finger-FokI)); details: average of 2; ZFN pair
[6] = test system: rat IgM-targeted ZFN pair, ZC linker (artificial (zinc finger-FokI)); details: rat C6 cells, CEL-I
[7] = test system: rat IgM-targeted ZFN pair, with L7a linker (artificial (zinc finger-FokI)); details: rat C6 cells, CEL-I

CCR5 ZFN SBS#8266, wild-type ZC linker (artificial (zinc finger-FokI)), sequence (chain, as listed by the source): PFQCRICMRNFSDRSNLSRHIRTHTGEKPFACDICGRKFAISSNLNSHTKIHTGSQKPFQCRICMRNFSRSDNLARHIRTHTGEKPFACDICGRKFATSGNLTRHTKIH
CCR5 ZFN SBS#8266, L6a linker (artificial (zinc finger-FokI)), sequence (chain, as listed by the source): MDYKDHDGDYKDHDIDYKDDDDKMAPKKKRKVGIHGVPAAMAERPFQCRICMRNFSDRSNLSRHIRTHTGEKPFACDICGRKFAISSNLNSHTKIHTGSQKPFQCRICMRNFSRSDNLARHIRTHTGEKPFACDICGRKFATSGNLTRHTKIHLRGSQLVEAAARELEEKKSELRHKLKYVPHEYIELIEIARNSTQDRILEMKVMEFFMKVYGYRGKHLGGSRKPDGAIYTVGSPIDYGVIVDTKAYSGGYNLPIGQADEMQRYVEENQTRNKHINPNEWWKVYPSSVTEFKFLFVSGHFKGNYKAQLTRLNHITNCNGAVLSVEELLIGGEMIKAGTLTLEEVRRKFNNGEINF

CCR5 ZFN target, 7 bp gap was tested, and the activity [1] was 5.1 % NHEJ and the activity ([2]; average of 2) was 39.6 % NHEJ.

In the case of mROSA target, 6 bp gap, the activity [3] is reported as 7.5 % NHEJ and the activity [4] is reported as 22.6 % NHEJ.

With CCR5 ZFN target, 4 bp gap the activity [5] was 1.2 % NHEJ.

In the case of CCR5 ZFN target, 6 bp gap, the activity [1] is reported as 25.4 % NHEJ, the activity ([2]; average of 2) is reported as 31.8 % NHEJ and the activity [5] is reported as 11.1 % NHEJ.

Substance CCR5 ZFN target, 5 bp gap has an activity [1] of 39.3 % NHEJ and an activity [5] of 35 % NHEJ.

rat IgM target, 6 bp gap gave an activity [6] of 1.93 % NHEJ and an activity [7] of 2.43 % NHEJ.

CCR5 ZFN target, 8 bp gap was tested, and the activity ([2]; average of 2 as printed) was 6.1 % NHEJ.
